Test results: PMC3326337

How the values were obtained:
[1] = target: T1, His-CRP (cAMP receptor protein) (Escherichia coli, UniProt P0ACJ8 1-210); assay: DRaCALA
[2] = target: Maltose binding protein (MBP) (UniProt P0AEX9 27-396); assay: DRaCALA
[3] = target: T1, His-CRP (cAMP receptor protein); assay: EMSA
[4] = target: T1, His-CRP (cAMP receptor protein); assay: DRaCALA; remark: listed apart in the source

T1 sequence (P0ACJ8 whole entry): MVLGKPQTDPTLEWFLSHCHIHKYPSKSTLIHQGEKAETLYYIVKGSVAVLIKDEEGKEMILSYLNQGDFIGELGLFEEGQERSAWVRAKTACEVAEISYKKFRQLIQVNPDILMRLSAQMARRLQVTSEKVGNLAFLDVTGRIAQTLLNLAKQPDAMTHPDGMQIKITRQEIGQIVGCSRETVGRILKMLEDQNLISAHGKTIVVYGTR

Binder	binding result [1]	binding result [2]	Kd [3]	Kd [4]
ICAP 8,10:G-C (gd132/gd133) (dsDNA) DNA 1: AGGAGGAATAAATCTCATCTAGATGAGATTTTAGAGGAGG DNA 2: CCTCCTCTAAAATCTCATCTAGATGAGATTTATTCCTCCT	no binding			
ICAP 10:G-C (gd130/gd131) (dsDNA) DNA 1: AGGAGGAATAAATGTCATCTAGATGACATTTTAGAGGAGG DNA 2: CCTCCTCTAAAATGTCATCTAGATGACATTTATTCCTCCT	no binding			
ICAP 40-bp (gd126/gd127) (dsDNA) DNA 1: AGGAGGAATAAATGTGATCTAGATCACATTTTAGAGGAGG DNA 2: CCTCCTCTAAAATGTGATCTAGATCACATTTATTCCTCCT	binds	no binding		
ICAP oligo (vl1427/vl1428) (dsDNA) DNA 1: GCAACGCAATAAATGTGATCTAGATCACATTTTAGGCACCC DNA 2: GGGGTGCCTAAAATGTGATCTAGATCACATTTATTGCGTTG			0.081 nM	0.036 nM
